Data on one molecule can be found in patent CN113754775A (SUNSHINE GUOJIAN PHARMACEUTICAL SHANGHAI CO LTD, dated 2021).

This assay has as its target T1, PDL1-ECD-his (human, UniProt Q9NZQ7 19-238).
T1 construct: extracellular domain; Made in HEK-293F
The experiment in a line: ELISA, PDL1-ECD-his coated, anti-human IgG Fc-HRP.

T1 sequence (Q9NZQ7 other isoform, or with tags, fused parts or gaps): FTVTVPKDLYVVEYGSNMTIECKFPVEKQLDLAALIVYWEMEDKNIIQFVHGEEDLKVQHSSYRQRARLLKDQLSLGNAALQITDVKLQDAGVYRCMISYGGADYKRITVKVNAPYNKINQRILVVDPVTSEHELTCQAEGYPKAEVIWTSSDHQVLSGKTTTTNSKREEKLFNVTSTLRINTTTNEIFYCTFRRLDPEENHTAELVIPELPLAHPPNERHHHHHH

B1: 抗人PD-L1抗体M8 (antibody, V domains shown)
VH: QVQLQQSGGGLVKPSQSLSLTCTVSGFSLTSYGVHWVRQPPGKGLEWIGLIWSGGGTDYNPSLKSRLTISRDTSKNQVSFKISSLTAADTAVYYCARQLGLRAMDYWGQGTSVTVSS
VL: EIVLTQSPDFLSVTPKEKVTITCRASQSIGTTIHWYQQKPDQSPKLLIKYASQSFSGVPSRFSGSGSGTDFTLTINSVEAEDAATYYCQQSNSWPLTFGAGTKLEIK
notes: Whole monoclonal antibody with two heavy and two light chains, made in HEK293F; also called anti-human PD-L1 antibody M8
For B1, the binding result is “binds”.
